What all share (experiment): BLI heatmap
In assay [1] the target is T1, LA peptide LAKLDEESILKQK (XAKLDEESILKQK, X = L).
T1 construct: Immobilized on the biolayer interferometry sensor
T1 peptide: LAKLDEESILKQK

Assay [2] addresses T2, VA peptide VAKLDEESILKQK (XAKLDEESILKQK, X = V).
T2 construct: Immobilized on the biolayer interferometry sensor
T2 peptide: VAKLDEESILKQK

Assay [3] addresses T3, IA peptide IAKLDEESILKQK (XAKLDEESILKQK, X = I).
T3 construct: Immobilized on the biolayer interferometry sensor
T3 peptide: IAKLDEESILKQK

In assay [4] the target is T4, F peptide FAKLDEESILKQK (XAKLDEESILKQK, X = F).
T4 construct: Immobilized on the biolayer interferometry sensor
T4 peptide: FAKLDEESILKQK

Assay [5] has as its target T1, LA peptide LAKLDEESILKQK ….
In assay [6] the target is T2, VA peptide VAKLDEESILKQK ….
Assay [7] deals with T5, W peptide WAKLDEESILKQK (XAKLDEESILKQK, X = W).
T5 construct: Immobilized on the biolayer interferometry sensor
T5 peptide: WAKLDEESILKQK

Assay [8] addresses T3, IA peptide IAKLDEESILKQK ….
Assay [9] addresses T6, Y peptide YAKLDEESILKQK (XAKLDEESILKQK, X = Y).
T6 construct: Immobilized on the biolayer interferometry sensor
T6 peptide: YAKLDEESILKQK

Assay [10] deals with T4, F peptide FAKLDEESILKQK (XAKLDEESILKQK, …).

Like-named read-outs stand apart in the source and are kept apart here.

B1: PS573 (other)
chain: MSQTPVIEETTVKDPVKTGGPWKVVLWDDDEHTYDYVIEMLMEVCVMTMEQAFHHAVEVDTQKKTVVYSGEFEHAEHIQELILEYGPDPRMAVSKGSMSATLEKS
Regarding B1, the binding result in [1] is recorded as “binds”; in assay [2], “binds”; in assay [3], “binds”; in assay [4], “no binding”.

B2: PS431 (other)
chain: MIISSVKSSPSTETLSRTELQLGGVWRVVVLNDPVNLMSYVMMIFKKIFGFNETVARRHMLEVHEKGRSVVWSGLREKAEAYVFTLQQWHLTAVLESDETH
For the molecule B2, the binding result in assay [5], in [6], in assay [7], in assay [8] and in assay [9] was “no binding” each time.

B3: PS429 (other)
chain: MSVQEEVLEEVKTKERVNKQNQIIVFNDDVNTFDHVIDMLIATCDHDPIQAEQCTMLIHYKGKCEVKTGDYDDLKPRCSKLLDAGISAEIQ
B3: the binding result in assay [5], in assay [6], in [7], in assay [8] and in [9] was “no binding” each time.

B4: PS406 (other)
chain: MPDATTTPRTKTLTRTARPPLHKVILVNDDFTPREFVVRLLKAEFRTTGDEAQRIMITAHMKGSCVVAVFTREIAESKATRATETARAEGFPLLFTTEPEE
B4: the binding result was “no binding” in assay [5]; “no binding” in assay [6]; “binds” in assay [7]; “no binding” in assay [8]; “binds” in assay [10]; “binds” in assay [9].

B5: PS564 (other)
chain: MFEEVVSVAVAEPKTKKQSRTKPKRQPPYHVILWDDTDHTFDYVIKMMGELFRMPREKGYQLAKEVDTSGRAICMTTTLELAELKRDQIHAFGRDDASAHCKGSMSATIEPAEG
As to B5, the binding result in [1], in assay [2], in [3] and in assay [4] was “no binding” each time.

B6: PS574 (other)
chain: MANATPTPDVVPEEETETRTRRQPPYAVVLHNDDTNTMDFVVTVLRKVFGYTVEKCVELMLEAHTQGKVAVWIGALEVAELKADQIKSFGPDPHVTKNGHPLGVTVEPAA
On to B6, for which the binding result in [1] is on record as “no binding”; in assay [2], “no binding”; in assay [3] it was “no binding”; in [4] it was “binds”.

B7: PS377 (other)
chain: MADISKSRPEIGGPKGPQFGDSDRGGGVAVITKPVTKKKFKRKSQTEYEPYWHVLLHHDNVHTFEYATGAIVKVVRTVSRKTAHRITMQAHVSGVATVTTTWKAQAEEYCKGLQMHGLTSSIAPDSSFTH
Regarding B7, the binding result in [5] is recorded as “no binding”; in assay [6] it was “no binding”; in [7], “binds”; in assay [8], “no binding”; in [9], “no binding”.

B8: PS572 (other)
chain: MSSEELSLQTRPKRQPPFGVILHNDDLNSFDYVIDSIRKVFHYELEKCFQLTLEAHETGRSLLWTGTLEGAELKQELLLSCGPDPIMLDKGGLPLKVTLEELPQ
Regarding B8, the binding result is “no binding” in [1], “no binding” in assay [2], “no binding” in assay [3] and “binds” in assay [4].

B9: PS368 (other)
chain: MASAPSTTLDKSTQVVKKTYPNYKVIVLNDDLNTFDHVANCLIKYIPDMTTDRAWELTNQVHYQGQAIVWTGPQEQAELYHQQLRREGLTMAPLEAA
For B9, the binding result is listed as “binds” in assay [5]; “no binding” in assay [6]; “binds” in assay [7]; “no binding” in [8]; “binds” in [10]; “binds” in assay [9].

B10: PS562 (other)
chain: MSDQQSMVAEPEVVVHTQDEKKLEKQNKRKKQPRYNVVLWDDTDHSYDYVVLMMKQLFHHPIETGFQIAKQVDKGGKAICLTTTMEHAELKRDQIHAFGKDDLIARCTGSMSATIEPVPE
As to B10, the binding result in [1], in [2], in [3] and in assay [4] was “no binding” each time.

B11: PS561 (other)
chain: MAELQTAVVEPTTRPEQDEKQSQSRPKRQPRYNVILWDDPDHSYDYVIMMLKELFGHPRQRGHQMAEEVDTTGRVICLTTTMEHAELKRDQIHAYGSDEGITRCKGSMSASIEPVPE
Regarding B11, the binding result in assay [1], in assay [2], in assay [3] and in assay [4] was “no binding” each time.

B12: PS577 (other)
chain: MSASSSQPGTTTKPDLDIQPRLLPPFHVILENDEFHSMEFVIDTLRKVLGVSIERAYQLMMTAHESGQAIIWTGPKEVAELKYEQVIGFHEKRSDGRDLGPLGCRIEPAV
Turning to B12, the binding result in [1] is recorded as “no binding”; in assay [2] it was “no binding”; in assay [3] it was “no binding”; in assay [4], “binds”.

B13: PS391 (other)
chain: MGQTVEKPRVEGPGTGLGGSWRVIVRNDDHNTFDHVARTLARFIPGVSLERGHEIAKVIHTTGRAVVYTGHKEAAEHYWQQLKGAGLTMAPLEQG
Consider B13, for which the binding result in assay [5], in assay [10] and in assay [9] was “binds” in each case.

B14: PS369 (other)
chain: MTSTLRARPARDTDLQHRPYPHYRIIVLDDDVNTFQHVVNCLVTFLPGMTRDQAWAMAQQVDGEGSAVVWTGPQEQAELYHVQLGNHGLTMAPLEPV
For B14, the binding result in assay [5], in assay [10] and in assay [9] was “binds” throughout.

B15: PS552 (other)
chain: MSKTSTLPEVESESAQKLKYQPPYHVILLNDDDHSYVYVITMLKELFGHPEQKGYQLADAVDKQGRAIVFTTTREHAELKQEQIHAYGPDPTIPRCKGAMTAVIEPAE
In the case of B15, the binding result is given as “binds” in assay [1], “binds” in [2], “binds” in assay [3] and “no binding” in [4].

B16: PS373 (other)
chain: MNRIKQEAVRTENLLICSESIRRTPGTMSNEESMFDEVVAVAVAEPETQHDERRGTKPKRQPPYHVILWDDTDHSFDYVIMMMKRLFRMPIEKGFQVAKEVDSSGRAICMTTTLELAELKRDQIHAFGKDELLPRCKGSMSATIEPAEG
On to B16, for which the binding result in assay [5], in assay [6], in assay [7], in [8], in [10] and in assay [9] was “no binding” throughout.

B17: PS563 (other)
chain: MSSRSATAYPEVEDDTSDQLQPLYHVILLNDEDHTYDYVIEMLQKIFGFPESKAFSHAVEVDTKGTTILLTCDLEQAERKRDLIHSYGPDWRLPRSLGSMAAVVEPAAG
On to B17, for which the binding result in [1] is “binds”; in assay [2] it was “binds”; in [3], “binds”; in [4] it was “no binding”.

B18: PS567 (other)
chain: MADYEDAGEDALEDDFDHGTVTVAPQKPEPKKQSENKRQANRQPRYNVLLWDSEDHTFEYVEKMLRELFGHIKKQCQIIAEQVDQEGRAVVLTTTLEHAELKRDQIHAYGKDQLEGSKGSMWSTIEAVD
With B18, the binding result in assay [1], in assay [2], in [3] and in assay [4] was “no binding” in each case.

B19: PS435 (other)
chain: MTLSVALGPDTQESTQTGTAVSTDTLTAPDIPWNLVIWNDPVNLMSYVSYVFQSYFGYSETKANKLMMEVHKKGRSIVAHGSKEQVEQHAVAMHGYGLWATVEKATGGNSGGGKSGGPGKGKGKRG
With B19, the binding result in [5] is on record as “binds”; in assay [6] it was “no binding”; in assay [7] it was “binds”; in [8] it was “no binding”; in assay [10], “binds”; in assay [9], “binds”.

Source of the values: patent US20210364527A1 (QUANTUM SI, published 2021).
